Paper PMC8368996, “Interactions between AMOT PPxY motifs and NEDD4L WW domains function in HIV-1 release” (The Journal of Biological Chemistry, 2021)

Tested on: full-length NEDD4L
Assay: FP binding of Alexa Fluor-tagged recombinant AMOT1-300 to full-length recombinant NEDD4L
Procedure: A labeled peptide (GGG-ALEXA488) was added to AMOT1-300 (which carried a sortase tag) by transpeptidation with sortase. Typical reactions contained 10 to 50 μM AMOT1-300, 30 to 150 μM GGG-ALEXA488 peptide and 20 μM sortase enzyme in the reaction buffer (50 mM Tris [pH 7.5], 150 mM NaCl and 10 mM CaCl2). Reactions were allowed to proceed at either room temperature or 4 °C until the reaction was complete (typically 1–4 h). AMOT1-300–ALEXA488 was then purified by ion-exchange chromatography (SP HiTrap) as described above.
Each dilution series was performed at least in triplicate. […] The mean Kd values are reported as mean ± SEM.

B1: AMOT1-300: Alexa Fluor 488-tagged recombinant AMOT construct (residues 1–300) spanning all three PPxY motifs, labeled by sortase transpeptidation (protein)
chain: MRNSEEQPSGGTTVLQRLLQEQLRYGNPSENRSLLAIHQQATGNGPPFPSGSGNPGPQSDVLSPQDHHQQLVAHAARQEPQGQEIQSENLIMEKQLSPRMQNNEELPTYEEAKVQSQYFRGQQHASVGAAFYVTGVTNQKMRTEGRPSVQRLNPGKMHQDEGLRDLKQGHVRSLSERLMQMSLATSGVKAHPPVTSAPLSPPQPNDLYKNPTSSSEFYKAQGPLPNQHSLKGMEHRGPPPEYPFKGMPPQSVVCKPQEPGHFYSEHRLNQPGRTEGQLMRYQHPPEYGAARPAQDISLPL
modifications: GGG-ALEXA488 peptide added by transpeptidation with sortase; left off: His, end not stated, state not stated | sortase tag, end not stated, kept
notes: Alexa Fluor 488-tagged recombinant AMOT construct (residues 1–300) spanning all three PPxY motifs, labeled by sortase transpeptidation
- fold tighter binding than the isolated AMOT PPxY1-NEDD4L WW3 complex (AMOT1-300-full-length NEDD4L vs PPxY1-WW3): 1.5 fold
- apparent dissociation constant, AMOT1-300 with full-length NEDD4L (Fig. 3C/E, FP, Alexa Fluor 488-tagged AMOT1-300, full isotherm not sampled because of limited solubility of full-length NEDD4L): 2.7 ± 0.8 µM
